This is an account of results in paper PMC2100146, “The Inhibition of Polo Kinase by Matrimony Maintains G2 Arrest in the Meiotic Cell Cycle” (PLoS Biology, 2007).

In general, stoichiometry N refers to the number of molecules, sites or subunits per partner or assembly.

In the assay the target is T1, C-terminally 3x FLAG-tagged Mtrm (Drosophila melanogaster, UniProt Q23973 1-217).
T1 construct: Matrimony (Mtrm), Drosophila melanogaster, 217 amino acids; Phosphorylation detected by MS on T40, S48, S52, S124 and S137; also called Mtrm-FLAG(3x); mtrm-Flag(3x); source: UASP-mtrm-Flag(3x) expressed in ovaries under the nanos-GAL4 driver in a wild-type background, in ovary extract; not shown: 3x FLAG, C-terminal, kept
T1 sequence (looked up): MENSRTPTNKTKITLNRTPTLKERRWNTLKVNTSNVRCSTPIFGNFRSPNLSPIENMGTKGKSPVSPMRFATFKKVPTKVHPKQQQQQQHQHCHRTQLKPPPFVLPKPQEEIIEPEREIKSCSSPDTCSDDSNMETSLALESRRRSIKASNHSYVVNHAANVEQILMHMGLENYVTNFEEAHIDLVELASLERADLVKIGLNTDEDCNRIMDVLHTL
Nature of the assay: affinity purification with mass spectrometry; anti-FLAG beads, ovary extracts expressing Mtrm-3x FLAG, eluted with 3x FLAG peptide; MudPIT; three independent purifications against five control FLAG immunoprecipitations from w1118; ratio of NSAF values. As to conditions: partners not purified.

B1: Polo kinase (Polo) (enzyme, UniProt P52304 1-576, looked up)
chain: MAAKPEDKSTDIPDRLVDINQRKTYKRMRFFGKGGFAKCYEIIDVETDDVFAGKIVSKKLMIKHNQKEKTAQEITIHRSLNHPNIVKFHNYFEDSQNIYIVLELCKKRSMMELHKRRKSITEFECRYYIYQIIQGVKYLHDNRIIHRDLKLGNLFLNDLLHVKIGDFGLATRIEYEGERKKTLCGTPNYIAPEILTKKGHSFEVDIWSIGCVMYTLLVGQPPFETKTLKDTYSKIKKCEYRVPSYLRKPAADMVIAMLQPNPESRPAIGQLLNFEFLKGSKVPMFLPSSCLTMAPRIGSNDTIEDSMHRKPLMEMNGIRPDDTRLESTFLKANLHDAITASAQVCRHSEDYRSDIESLYQQLTNLINGKPRILQGNLGDENTDPAAQPLFWISKWVDYSDKYGFGYQLCDEGIGVMFNDTTKLILLPNQINVHFIDKDGKETYMTTTDYCKSLDKKMKLLSYFKRYMIEHLVKAGANNVNIESDQISRMPHLHSWFRTTCAVVMHLTNGSVQLNFSDHMKLILCPRMSAITYMDQEKNFRTYRFSTIVENGVSKDLYQKIRYAQEKLRKMLEKMFT
notes: Polo kinase, Drosophila melanogaster; endogenous protein of ovaries; Polo recovered with Mtrm-3xFLAG was found phosphorylated on T182 at over 80% in all three purifications; source: endogenous, Drosophila ovary extract
As for B1, the “stoichiometry N” value was found to be 0.96 ± 0.11.
